tested on: Escherichia coli TOP10; test: shrunken log2 fold change of peptide-encoding DNA abundance (4.5 h post-induction vs induction); higher = less antimicrobial activity (less host growth inhibition); details: time post-induction: 4.5 h; library: site-saturation at positions 5, 18, 19, 20
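Also: peptides expressed intracellularly from a pBAD plasmid library in pooled LB shake-flask culture, induced with 0.3% L-arabinose, DNA abundance read by NGS, three biological replicates, DESeq2 with apeglm shrinkage.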

Compared with RRIRRRPPRLPRPRPRPHIRPRP, RRIRPRPPRLPRPRPRPEHPPRP is higher in “shrunken log2 fold change” value: 0.00753 for the first, 0.231 for the second.

First: RRIRKRPPRLPRPRPRPYGDPRP
Second: RRIRFRPPRLPRPRPRPAYNPRP
The “shrunken log2 fold change” value of the first is higher: -0.224 for the first, -0.486 for the second.

RRIRNRPPRLPRPRPRPDWLPRP and RRIRWRPPRLPRPRPRPTNWPRP are within 0.2 log units of each other in “shrunken log2 fold change” value: 0.156 for the first, 0.206 for the second.

Compared with RRIRNRPPRLPRPRPRPYVYPRP, RRIRVRPPRLPRPRPRPANKPRP is higher in “shrunken log2 fold change” value: -1.31 for the first, -0.36 for the second.

RRIRQRPPRLPRPRPRPTGTPRP and RRIRFRPPRLPRPRPRPKSWPRP are within 0.2 log units of each other in “shrunken log2 fold change” value: 0.285 for the first, 0.199 for the second.

RRIRIRPPRLPRPRPRPWAAPRP and RRIRMRPPRLPRPRPRPVFPPRP are within 0.2 log units of each other in “shrunken log2 fold change” value: 0.00251 for the first, 0.0941 for the second.

Compared with RRIRVRPPRLPRPRPRPKDFPRP, RRIRQRPPRLPRPRPRPHHKPRP is lower in “shrunken log2 fold change” value: 0.123 for the first, -0.205 for the second.

Going from RRIRCRPPRLPRPRPRPEETPRP to RRIRLRPPRLPRPRPRPKVIPRP, the “shrunken log2 fold change” value falls from 0.143 to -0.185.

Going from RRIRVRPPRLPRPRPRPFNAPRP to RRIRDRPPRLPRPRPRPIWHPRP, the “shrunken log2 fold change” value rises from -0.563 to 0.144.

RRIRTRPPRLPRPRPRPGMLPRP and RRIRDRPPRLPRPRPRPKVHPRP are within 0.2 log units of each other in “shrunken log2 fold change” value: -0.141 for the first, -0.216 for the second.

Going from RRIRWRPPRLPRPRPRPRKGPRP to RRIRCRPPRLPRPRPRPWTWPRP, the “shrunken log2 fold change” value falls from 0.612 to 0.00573.

RRIRVRPPRLPRPRPRPLPWPRP and RRIRMRPPRLPRPRPRPSPCPRP are within 0.2 log units of each other in “shrunken log2 fold change” value: 0.196 for the first, 0.18 for the second.

Going from RRIRKRPPRLPRPRPRPGIEPRP to RRIRKRPPRLPRPRPRPMKMPRP, the “shrunken log2 fold change” value falls from 1.34 to 0.473.

RRIRFRPPRLPRPRPRPCHLPRP and RRIRVRPPRLPRPRPRPGQSPRP are within 0.2 log units of each other in “shrunken log2 fold change” value: -0.0779 for the first, 0.0938 for the second.

Compared with RRIRHRPPRLPRPRPRPTWQPRP, RRIRVRPPRLPRPRPRPEGMPRP is lower in “shrunken log2 fold change” value: 0.572 for the first, 0.326 for the second.

Going from RRIRRRPPRLPRPRPRPTHDPRP to RRIRHRPPRLPRPRPRPEEYPRP, the “shrunken log2 fold change” value falls from 0.89 to -0.289.

First: RRIRQRPPRLPRPRPRPYWHPRP
Second: RRIRLRPPRLPRPRPRPLFAPRP
The “shrunken log2 fold change” value of the first is lower: -0.317 for the first, 0.233 for the second.

First: RRIRFRPPRLPRPRPRPRYHPRP
Second: RRIRDRPPRLPRPRPRPSYSPRP
The “shrunken log2 fold change” value of the first is higher: -0.295 for the first, -0.581 for the second.

Compared with RRIRWRPPRLPRPRPRPLSGPRP, RRIRNRPPRLPRPRPRPCPKPRP is lower in “shrunken log2 fold change” value: 0.34 for the first, 0.0342 for the second.

Compared with RRIRARPPRLPRPRPRPIMRPRP, RRIRTRPPRLPRPRPRPFIGPRP is lower in “shrunken log2 fold change” value: 0.491 for the first, -0.353 for the second.

First: RRIRVRPPRLPRPRPRPHPTPRP
Second: RRIRMRPPRLPRPRPRPEKVPRP
The “shrunken log2 fold change” value of the first is lower: 0.23 for the first, 1.45 for the second.

Going from RRIRDRPPRLPRPRPRPENFPRP to RRIRMRPPRLPRPRPRPRMQPRP, the “shrunken log2 fold change” value rises from 0.043 to 0.598.

Compared with RRIRPRPPRLPRPRPRPVQYPRP, RRIRGRPPRLPRPRPRPEPKPRP is higher in “shrunken log2 fold change” value: -0.0191 for the first, 0.45 for the second.

RRIRPRPPRLPRPRPRPVWMPRP and RRIRPRPPRLPRPRPRPGWKPRP are within 0.2 log units of each other in “shrunken log2 fold change” value: 0.136 for the first, 0.269 for the second.

Going from RRIRCRPPRLPRPRPRPPVAPRP to RRIRARPPRLPRPRPRPCQHPRP, the “shrunken log2 fold change” value falls from 0.443 to -0.274.

RRIRARPPRLPRPRPRPPQVPRP and RRIRIRPPRLPRPRPRPTVRPRP are within 0.2 log units of each other in “shrunken log2 fold change” value: 0.162 for the first, 0.158 for the second.

RRIRYRPPRLPRPRPRPQFKPRP and RRIRTRPPRLPRPRPRPMELPRP are within 0.2 log units of each other in “shrunken log2 fold change” value: -0.134 for the first, -0.172 for the second.

First: RRIRGRPPRLPRPRPRPTERPRP
Second: RRIRMRPPRLPRPRPRPWRCPRP
The “shrunken log2 fold change” value of the first is higher: 0.675 for the first, 0.0452 for the second.

First: RRIRWRPPRLPRPRPRPLRQPRP
Second: RRIRFRPPRLPRPRPRPDEAPRP
The “shrunken log2 fold change” value of the first is higher: 0.539 for the first, 0.0246 for the second.

Going from RRIRYRPPRLPRPRPRPNYFPRP to RRIRMRPPRLPRPRPRPAGQPRP, the “shrunken log2 fold change” value rises from -1.69 to -0.00902.

Going from RRIRFRPPRLPRPRPRPNQSPRP to RRIRWRPPRLPRPRPRPMFTPRP, the “shrunken log2 fold change” value rises from -0.32 to -0.0283.

RRIRWRPPRLPRPRPRPPLEPRP and RRIRLRPPRLPRPRPRPPAMPRP are within 0.2 log units of each other in “shrunken log2 fold change” value: 0.474 for the first, 0.42 for the second.

First: RRIRERPPRLPRPRPRPSCFPRP
Second: RRIRGRPPRLPRPRPRPNSSPRP
The “shrunken log2 fold change” value of the first is lower: -0.322 for the first, -0.00499 for the second.

First: RRIRFRPPRLPRPRPRPMGPPRP
Second: RRIRSRPPRLPRPRPRPEKQPRP
The “shrunken log2 fold change” value of the first is lower: -0.238 for the first, 0.1 for the second.

Compared with RRIRQRPPRLPRPRPRPDHLPRP, RRIRDRPPRLPRPRPRPAAEPRP is higher in “shrunken log2 fold change” value: 0.0112 for the first, 1.25 for the second.

Compared with RRIRARPPRLPRPRPRPMGAPRP, RRIRERPPRLPRPRPRPDSGPRP is lower in “shrunken log2 fold change” value: 0.572 for the first, -0.533 for the second.

RRIRIRPPRLPRPRPRPTFQPRP and RRIRQRPPRLPRPRPRPCHNPRP are within 0.2 log units of each other in “shrunken log2 fold change” value: -0.0244 for the first, -0.0554 for the second.

Compared with RRIRKRPPRLPRPRPRPWCFPRP, RRIRFRPPRLPRPRPRPSSPPRP is lower in “shrunken log2 fold change” value: 0.164 for the first, -0.284 for the second.

RRIRSRPPRLPRPRPRPKFRPRP and RRIRCRPPRLPRPRPRPMTDPRP are within 0.2 log units of each other in “shrunken log2 fold change” value: -0.183 for the first, -0.0858 for the second.

First: RRIRDRPPRLPRPRPRPQPRPRP
Second: RRIRFRPPRLPRPRPRPKMHPRP
The “shrunken log2 fold change” value of the first is higher: 0.458 for the first, 0.0482 for the second.

Going from RRIRKRPPRLPRPRPRPIKSPRP to RRIRFRPPRLPRPRPRPNRTPRP, the “shrunken log2 fold change” value falls from 3.22 to -0.0619.

Going from RRIRIRPPRLPRPRPRPIPSPRP to RRIRFRPPRLPRPRPRPFHVPRP, the “shrunken log2 fold change” value falls from -0.193 to -0.546.

Compared with RRIRERPPRLPRPRPRPKYQPRP, RRIRKRPPRLPRPRPRPMLMPRP is higher in “shrunken log2 fold change” value: -0.601 for the first, 0.322 for the second.

First: RRIRQRPPRLPRPRPRPYIKPRP
Second: RRIRARPPRLPRPRPRPWADPRP
The “shrunken log2 fold change” value of the first is lower: -1.38 for the first, 0.0394 for the second.

Compared with RRIRRRPPRLPRPRPRPKCQPRP, RRIRNRPPRLPRPRPRPAARPRP is lower in “shrunken log2 fold change” value: 0.506 for the first, 0.161 for the second.

Going from RRIRKRPPRLPRPRPRPKKAPRP to RRIRARPPRLPRPRPRPTPQPRP, the “shrunken log2 fold change” value rises from 0.0547 to 0.745.

RRIRSRPPRLPRPRPRPFELPRP and RRIRWRPPRLPRPRPRPHQSPRP are within 0.2 log units of each other in “shrunken log2 fold change” value: 0.0413 for the first, 0.0383 for the second.

RRIRNRPPRLPRPRPRPSVHPRP and RRIRWRPPRLPRPRPRPDKHPRP are within 0.2 log units of each other in “shrunken log2 fold change” value: -0.311 for the first, -0.243 for the second.

First: RRIRCRPPRLPRPRPRPSMLPRP
Second: RRIRIRPPRLPRPRPRPWADPRP
The “shrunken log2 fold change” value of the first is lower: -0.727 for the first, -0.435 for the second.

RRIRRRPPRLPRPRPRPDITPRP and RRIRMRPPRLPRPRPRPRSNPRP are within 0.2 log units of each other in “shrunken log2 fold change” value: 0.303 for the first, 0.13 for the second.

Going from RRIRRRPPRLPRPRPRPNGNPRP to RRIRERPPRLPRPRPRPPDIPRP, the “shrunken log2 fold change” value falls from 0.0494 to -0.225.

Compared with RRIRWRPPRLPRPRPRPRAYPRP, RRIRFRPPRLPRPRPRPTYLPRP is lower in “shrunken log2 fold change” value: 0.224 for the first, -0.243 for the second.

Going from RRIRIRPPRLPRPRPRPMANPRP to RRIRARPPRLPRPRPRPAKLPRP, the “shrunken log2 fold change” value rises from -0.104 to 0.196.

Compared with RRIRNRPPRLPRPRPRPHVFPRP, RRIRYRPPRLPRPRPRPIVVPRP is lower in “shrunken log2 fold change” value: -0.151 for the first, -0.414 for the second.

With RRIRSRPPRLPRPRPRPRVEPRP the “shrunken log2 fold change” value was 0.183.
